According to publication PMC7679444, “Regulation of cytokine signaling through direct interaction between cytokine receptors and the ATG16L1 WD40 domain” (Nature Communications, 2020):
Where no end group is shown, it is not given here. Tds = not defined here

B1: TMEM59 peptide 268–280 with decreased E272-Y277 distance (ELY) (peptide, UniProt Q9BXS4 268-280, looked up)
peptide: Tds-YVPSELYGDL
modifications: reading uncertain
notes: TMEM59 residues 268-280 with native residues between E272 and Y277 deleted so that one (L) is left; only the changed stretch is printed; source: synthetic peptide on microarray, ordered from JPT (Germany)
B2: TMEM59 peptide 268–280 with decreased Y268-E272 distance (YE) (peptide, UniProt Q9BXS4 268-280, looked up)
peptide: Tds-YEKLSIYGDL
modifications: reading uncertain
notes: TMEM59 residues 268-280 with the native residues between Y268 and E272 deleted; only the changed stretch is printed; also called YE (Y268-E272); source: synthetic peptide on microarray, ordered from JPT (Germany)
B3: TMEM59 peptide (residues 268–280), wild type (peptide, UniProt Q9BXS4 268-280, looked up)
peptide: Tds-YVPSEKLSIYGDL
modifications: reading uncertain
notes: TMEM59 intracellular domain, residues 268-280; also called active TMEM59 peptide; source: synthetic peptide on microarray, ordered from JPT (Germany)
B4: TMEM59 peptide 268–280 with increased Y268-E272 distance (YVAPAASE) (peptide, UniProt Q9BXS4 268-280, looked up)
peptide: Tds-YVAPAASEKLSIYGDL
modifications: reading uncertain
notes: TMEM59 residues 268-280 with extra alanines between Y268 and E272; only the changed stretch is printed; also called YVAPAASE (Y268-E272); source: synthetic peptide on microarray, ordered from JPT (Germany)
B5: TMEM59 peptide 268–280 with increased E272-Y277 distance (EKAALASAIY) (peptide, UniProt Q9BXS4 268-280, looked up)
peptide: Tds-YVPSEKAALASAIYGDL
modifications: reading uncertain
notes: TMEM59 residues 268-280 with extra alanines between E272 and Y277; only the changed stretch is printed; source: synthetic peptide on microarray, ordered from JPT (Germany)

target: T1, GST-HA-ATG16L1(231–607) (human, UniProt Q676U5 231-607); experiment: peptide or protein array; peptides immobilised on glass slides through the N-terminal end with a Tds spacer (JPT); GST-HA-ATG16L1 fragment in PBS/0,05% Tween-20 with 5% BSA, 20-800 nM, 2 h at RT plus overnight at 4 °C; detected with anti-HA and anti-GST and Cy5-labelled secondary antibodies; binding normalised to the wild-type peptide; conditions: both partners purified
T1 construct: ATG16L1, human, residues 231-607 (results and legend); the methods name the construct 230-607; includes the WD40 domain (WDD, 320-607); Limits differ between results (231-607) and methods (230-607); also called GST-HA-ATG16L1-230-607; recombinant protein that includes the WDD; source: HEK-293T, retrovirally transduced, purified (GSH-agarose, eluted with reduced GSH, concentrated)
T1 sequence (Q676U5 231-607): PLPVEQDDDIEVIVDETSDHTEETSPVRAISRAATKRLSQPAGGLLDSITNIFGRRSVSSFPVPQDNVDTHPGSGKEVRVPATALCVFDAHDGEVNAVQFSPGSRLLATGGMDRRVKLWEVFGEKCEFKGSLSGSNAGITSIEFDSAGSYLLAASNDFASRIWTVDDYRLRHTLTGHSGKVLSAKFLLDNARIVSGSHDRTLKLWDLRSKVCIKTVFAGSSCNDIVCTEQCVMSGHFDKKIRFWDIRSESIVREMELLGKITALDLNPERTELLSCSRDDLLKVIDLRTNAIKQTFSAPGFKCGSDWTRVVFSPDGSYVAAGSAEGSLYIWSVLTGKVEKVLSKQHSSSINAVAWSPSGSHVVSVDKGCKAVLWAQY

| binding result | Binder |
| --- | --- |
| binds | B1 |
| binds | B2 |
| binds | B3 |
| binds | B4 |
| binds | B5 |
